Here are results for one molecule from patent US11932880B2, “Enzyme and method for assaying pentosidine using same” (priority 2018, dated 2024).

Data set [1] in a line: Enzyme activity measurement with pentosidine as substrate (A555 change, U/mL). It counts as biochemical. Here is the method: (§1) 600 μL of an arbitrary buffer, 400 μL of deionized water solution in which 3.99 U/mL peroxidase, 1.8 mM 4-aminoantipyrine and 2 mM TOOS were dissolved, and 150 μL of deionized water were incubated at an arbitrary temperature for 10 minutes. Then, 50 μL of the enzyme solution having been stored on ice and 400 μL of a solution of 4 mM pentosidine dissolved in a 100 mM potassium phosphate buffer (pH 8.0) having been incubated at an arbitrary temperature for 10 minutes were added thereto, followed by stirring and reacting at an arbitrary temperature for 3 minutes. A change over time of A555 during the reaction was measured using a spectrophotometer (U-3900, manufactured by Hitachi High-Tech Science Corporation). An elapsed time from the start of the measurement of 20 seconds to 60 seconds—A555 change was regarded as an activity value.
Besides, an amount of the enzyme generating 1 μmol of hydrogen peroxide per minute at 37° C. was defined as one unite (U), and the activity was calculated in accordance with the following equation. Activity (U/mL)={(ΔAs−ΔA0)×1.6×df}/(39.2×0.5×0.05) • ΔAs: change of A555 per minute of reaction solution • ΔA0: change of A555 per minute of control experiment • 1.6: volume (mL) of whole reaction solution • df: dilution factor • 39.2: millimolar absorbance coefficient (mM^−1-cm-1) of quinoneimine pigment generated through reaction • 0.5: molar number of quinoneimine pigment generated by 1 mol of hydrogen peroxide • 0.05: volume (mL) of enzyme solution
A 50 mM citric acid-100 mM potassium phosphate buffer (pH 4.0 to 7.5, a final concentration), a potassium phosphate buffer (pH 6.5 to 8.0, a final concentration of 100 mM), and a glycine buffer (pH 8.0 to 11.0, a final concentration of 100 mM) were prepared, and these were used to perform an enzymatic reaction at respective pH at a temperature of 37° C. […] Therefore, it was determined that the optimum pH of PenOX2 is pH 6.5 to 8.0, and that the most suitable optimum pH is pH 7.5.
A potassium phosphate buffer (pH 7.5) having a final concentration of 50 mM was used to perform the activity measurement of PenOX2 at various temperatures. The highest activity was obtained around 50° C., and a temperature range for attaining 80% or more of this highest activity was 37° C. to 50° C. Therefore, it was determined that the range of the optimum temperature of PenOX2 is 37° C. to 50° C.
The above-described activity measurement method was employed to perform activity measurement using a potassium phosphate buffer (final pH in the activity measurement: pH 7.5, final concentration of 50 mM) at 37° C., and an activity value (U/mL) was obtained by using the aforementioned equation.
As described above, both PenOX1 and PenOX2 had the pentosidine oxidase activity. […] Subsequently, the following three enzymes were purchased, and the above-described activity measurement method was employed for confirming their pentosidine oxidase activity using a potassium phosphate buffer (pH 7.5, final concentration of 100 mM) at 37° C. The amino acid sequence homologies with PenOX1 and PenOX2 and the pentosidine oxidase activities of these enzymes were as follows.

A short description of data set [2]: Measurement of L-arginine oxidation activity of hypha extract. It counts as biochemical. The note with it: intracellular recombinant PenOX2 after anion exchange and ultrafiltration concentration. The method, then: 200 μL of each crude enzyme solution was mixed with a 380 μL of 150 mM potassium phosphate buffer solution (pH 7.0) in which 7.1 U/mL peroxidase, 0.70 mM 4-aminoantipyrine and 0.79 mM TOOS were dissolved. The resultant mixture was incubated at 37° C. for 5 minutes, and 20 μL of a 60 mM L-arginine solution was added thereto, followed by stirring, and reacting at 37° C. for 5 minutes. A change over time of A555 during the reaction was measured using a spectrophotometer (U-3900, manufactured by Hitachi High-Tech Science Corporation). A control experiment was performed by adding 20 μL of ion-exchanged water instead of 20 μL of the 60 mM L-arginine solution. An amount of the enzyme generating 1 μmol of hydrogen peroxide per minute at 37° C. was defined as one unit (U), and the activity was calculated in accordance with the following equation: Activity (U/mL)={(ΔAs−ΔA0)×0.6×df}/(39.2×0.5×0.2) • ΔAs: change of A555 per minute of reaction solution • ΔA0: change of A555 per minute of control experiment • 39.2: millimolar absorbance coefficient (mM^−1·cm^−1) of quinoneimine pigment generated through reaction • 0.5: molar number of quinoneimine pigment generated by 1 mol of hydrogen peroxide • 0.6: volume (mL) of whole reaction solution • df: dilution factor • 0.2: volume (mL) of enzyme solution

Data set [3] in a line: Pentosidine quantitative test (DA-67/peroxidase, A658, Bio Majesty JCA-BM1650). The note with it: 0.2-4.0 μM pentosidine solutions, 37° C., 5 minutes; ΔA658 correlated with final pentosidine concentration (FIG. 4). It counts as biochemical. The method, then: The following reagents were prepared to measure pentosidine by using Bio Majesty JCA-BM1650 (manufactured by JEOL Ltd.).
0.2 μM, 0.4 μM, 0.6 μM, 1.0 μM, 2.0 μM or 4.0 μM pentosidine solution
25 μL of the sample was added to 50 μL of the first reagent, and the resultant was incubated at 37° C. for 5 minutes. Then, 25 μL of the second reagent was added thereto to allow a pentosidine oxidation reaction owing to PenOX2 and a detection reaction for hydrogen peroxide generated through the reaction to proceed at 37° C. for 5 minutes.
In the detection reaction for hydrogen peroxide, simultaneously with consumption of […], DA-67 is oxidized into methylene blue to present the color, and the absorbance (A658) is increased. As an example, the relationship between the elapsed time after the mixture of the sample (4.0 μM pentosidine solution) and the first reagent and the absorbance (A658) is shown in FIG. 3. It was confirmed that A658 increased immediately after the addition of the second reagent containing PenOX2.
Subsequently, an A658 increment (AA) caused by the oxidation of pentosidine was calculated in accordance with the following equation: ΔA=(absorbance 5 min after addition of second reagent)−(absorbance immediately before addition of second reagent×0.75)

A short description of data set [4]: Thermal stability of PenOX2 (residual activity after 10 minutes treatment). It counts as physicochemical. The note with it: treated 10 minutes at respective temperatures; residual activity measured at pH 7.5, 37° C.; FIG. 9. The method, then:
as §1
Residual activity obtained when the enzyme solution was treated for 10 minutes at respective temperatures was evaluated by performing the activity measurement described above by using a potassium phosphate buffer (final pH in the activity measurement: pH 7.5, final concentration of 100 mM) at 37° C.

Data set [5] is described as follows: Range of stable pH of PenOX2 (residual activity after 25° C., 20 hours). It counts as physicochemical. Here is the method: as §1
Treatments were performed respectively using, as a buffer solution, a 100 mM citric acid-200 mM potassium phosphate buffer (pH 3.0 to 6.5), a 200 mM potassium phosphate buffer (pH 6.5 to 8.0) and a 200 mM glycine buffer (pH 8.0 to 10.0) at respective pH and at 25° C. for 20 hours, and then, residual activity of PenOX2 was measured.

B1: PenOX2: protein having the amino acid sequence of SEQ ID NO: 4, pentosidine oxidase from Sarocladium sp., gene g10122; recombinant from Aspergillus sojae (protein, listed as Sarocladium sp.)
chain: MFTPKAWIPLLALSREVFSNPTSASHSISFHGLLGVSSESVHNIHLTYGDAFPHGDFRVVFGDCGMTSEDELHHEVASLSTKMESAPDRLVWLVPKDVRENGCLHAFSEGVLLGRSEPVAFTEPLRKRESLSEIGDSDGLWFSGIRYLQSSNLTSVKAAEAKEKKIGIVGGGISGLMTSLLLTSVGMTNWHIIEATERVGGRIRTKYMNGTSPDDYQYQEMGPMRFPVEVKYNDTNETLPIQDHKMVFQLAEVLNEMNGNDTDLAVKFIPWTQNNPNTPANSRGYRLPDGRIPTAAQIAQNPSILPAAANASDPQDAELGKESLERLSDLTPERMRNISANIFKAHRDAIDRGLFHWSEAAYLRYQLGLDDDTVDFVAASDNYPMFPDWWHAVYFAATKWLTIDKGLDSLSRAFVPHVKDKITYGRKIEAMQWNESTSKISLSWRESPLAAAKSDEYDYAVVAVPFSKVRLWKRPAYSNLLTRAIGKLNYEQACKVALLYETRFWEHQEIPIFGGCGSVDIPGIGGVCYPSYEINSTRPGVILSSYITGTEARSVVALSEEDHVAMVQRAMVEVHGPMADEQWTGIYDRLCWEVDENAAGGWASPTVGQQELFIPAYHKTELNTIFIGEHTSITHGWIFSALESSVRGTTQLLLDLGLVDEAKQIVETWMARWITV
B1: the “pH of highest activity (most suitable optimum pH)” value in data set [1] (37° C., FIG. 7) amounted to 7.5 pH. For the same molecule, in data set [1] (at 37° C. to 50° C., pH 7.5), the “activity relative to highest activity” value is no less than 80%. Also, the “activity relative to value in potassium phosphate buffer of around pH 7.5” value in data set [1] (at pH 6.5 to 8.0, 37° C.) is reported as no less than 70%. In data set [1] (pH 7.5, 50 mM potassium phosphate, 37° C., Lineweaver-Burk plot, FIG. 11), the Km is 140 µM. The “specific activity against pentosidine” value in data set [1] (pH 7.5, 50 mM, 37° C., protein by Bradford method) was 29.1 U/mg. Further, the “activity value against pentosidine” value in data set [1] (potassium phosphate buffer pH 7.5, 50 mM, 37° C.) was 7.8 U/mL. Further, the “temperature of highest activity” value in data set [1] (potassium phosphate buffer pH 7.5, 50 mM, FIG. 8) is “around 50 °C”. The “L-arginine oxidation activity of concentrate of purified PenOX2 solution” value in data set [2] was 24 U/mL. The pentosidine oxidation activity entry in data set [3] is recorded as “exhibits the pentosidine oxidation activity”. Moreover, the “temperature up to which enzyme was stable” value in data set [4] was “about 30 °C”. The “residual activity relative to PenOX2 stored at 4° C.” value in data set [5] (pH range 4.0 to 9.0, FIG. 10) is on record as no less than 60%; in data set [5] (pH range 4.5 to 7.5, FIG. 10) it was no less than 90%.

By Km is commonly meant the substrate concentration at which the rate is half of its maximum.
